Laboratory results as given in PMC3278457.

Experiments:
[1] = target: spinophilin, endogenous in mouse striatal TSF (mouse (endogenous in striatum)) (UniProt Q6R891); assay: co-IP; spinophilin immunoprecipitated with 4 µg goat spinophilin antibody from mouse striatal TSFs (WT or T286A-KI; PND21 or adult); immunoblot
[2] = target: spinophilin (GST fusion fragments) 1-300 (UniProt O35274); assay: GST pull-down from striatal extract; settings: reference: wild-type mice; sites T286
spinophilin (striatal) = spinophilin (striatal) (UniProt Q6R891); assay: co-IP with spinophilin antibody, striatal extract; settings: reference: wild-type mice; sites T286

UniProt Q6R891, sequence (Q6R891 whole entry, the tested form may be a part): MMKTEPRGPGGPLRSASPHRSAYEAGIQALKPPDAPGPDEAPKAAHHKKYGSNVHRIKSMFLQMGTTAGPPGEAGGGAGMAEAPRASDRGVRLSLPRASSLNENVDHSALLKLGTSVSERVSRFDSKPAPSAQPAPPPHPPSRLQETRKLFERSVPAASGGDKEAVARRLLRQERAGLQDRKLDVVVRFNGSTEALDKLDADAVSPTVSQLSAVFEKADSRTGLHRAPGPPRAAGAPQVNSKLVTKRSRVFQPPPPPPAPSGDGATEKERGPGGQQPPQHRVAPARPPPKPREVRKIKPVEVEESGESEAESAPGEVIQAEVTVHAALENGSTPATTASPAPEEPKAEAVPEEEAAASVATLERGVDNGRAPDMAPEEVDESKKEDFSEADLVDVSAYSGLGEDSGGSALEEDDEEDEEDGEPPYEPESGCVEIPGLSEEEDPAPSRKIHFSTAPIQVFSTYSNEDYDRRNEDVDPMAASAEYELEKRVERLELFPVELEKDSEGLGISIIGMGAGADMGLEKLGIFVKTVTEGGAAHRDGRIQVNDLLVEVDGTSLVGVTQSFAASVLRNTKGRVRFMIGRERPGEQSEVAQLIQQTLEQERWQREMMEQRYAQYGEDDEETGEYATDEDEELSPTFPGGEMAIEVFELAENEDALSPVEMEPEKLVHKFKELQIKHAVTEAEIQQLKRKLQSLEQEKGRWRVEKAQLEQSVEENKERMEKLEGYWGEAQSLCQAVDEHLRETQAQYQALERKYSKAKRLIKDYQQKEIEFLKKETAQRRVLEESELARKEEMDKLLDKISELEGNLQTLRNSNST

Row | reduction of CaMKIIα in spinophilin immune complexes, T286A-KI against WT [1] [%] | binding against the reference [2] | other: reduction relative to wild type (spinophilin (striatal)) | Substance
1 | 50 | – | – | CaMKIIα T286A, endogenous in T286A-KI mouse striatum (from UniProt P11798 1-478) (enzyme)
2 | – | weaker | weaker | CaMKIIα (from UniProt P11798) T286A knock-in mice
